B1: CSF2-001 (peptide)
peptide: TQIITFESF
notes: also called TQIITFESF
B2: KBTBD8-003 (peptide)
peptide: CAMPVAMEF
notes: also called CAMPVAMEF
B3: WNT7A-002 (peptide)
peptide: VYLRIGGF
notes: also called VYLRIGGF
B4: KIAA140-001 (peptide)
peptide: LYQQSDTWSL
notes: also called LYQQSDTWSL
B5: FAM82A1-001 (peptide)
peptide: ASYQQSTSSFF
notes: also called ASYQQSTSSFF
B6: HMCN1-007 (peptide)
peptide: EVVHTVFLF
notes: also called EVVHTVFLF
B7: ZCCHC16-001 (peptide)
peptide: YSLEHLTQF
notes: also called YSLEHLTQF
B8: GPR143-001 (peptide)
peptide: VTMYLPLLL
notes: also called VTMYLPLLL
B9: PTP-038 (peptide)
peptide: KASKITFHW
notes: also called KASKITFHW
B10: DLX5-002 (peptide)
peptide: HQYGGAYNRV
notes: also called HQYGGAYNRV
B11: LAMA1-008 (peptide)
peptide: KYSVAFYSLD
notes: also called KYSVAFYSLD
B12: CDK6-006 (peptide)
peptide: AVLRHLETF
notes: also called AVLRHLETF
B13: KCNK18-001 (peptide)
peptide: YLCMLYALF
notes: also called YLCMLYALF
B14: FOXP3-001 (peptide)
peptide: RTLNEIYHW
notes: also called RTLNEIYHW
B15: CAPN6-001 (peptide)
peptide: FSFSTSMNEF
notes: also called FSFSTSMNEF
B16: LOC1001246-001 (peptide)
peptide: KQPANFIVL
notes: also called KQPANFIVL
B17: NUP155-012 (peptide)
peptide: THAGVRLYF
notes: also called THAGVRLYF
B18: OR51E2-005 (peptide)
peptide: SHIGVVLAF
notes: also called SHIGVVLAF
B19: LOXL4-004 (peptide)
peptide: RHYHSIEVF
notes: also called RHYHSIEVF
B20: TGM4-002 (peptide)
peptide: RAMCAMMSF
notes: also called RAMCAMMSF
B21: GEN-004 (peptide)
peptide: YQRPDLLLF
notes: also called YQRPDLLLF
B22: MROH2A-006 (peptide)
peptide: YQGSLEVLF
notes: also called YQGSLEVLF
B23: SPNS3-006 (peptide)
peptide: YLGKNWSF
notes: also called YLGKNWSF
B24: GPR45-001 (peptide)
peptide: TQLPAPLRI
notes: also called TQLPAPLRI
B25: CXCR3-002 (peptide)
peptide: LFALPDFIF
notes: also called LFALPDFIF
B26: CAPN6-002 (peptide)
peptide: INGDLVFSF
notes: also called INGDLVFSF
B27: DNMT3B-003 (peptide)
peptide: SQHFNLATF
notes: also called SQHFNLATF
B28: ACTL8-002 (peptide)
peptide: EMFFSPQVF
notes: also called EMFFSPQVF
B29: AGTR2-001 (peptide)
peptide: KVFGSFLTL
notes: also called KVFGSFLTL
B30: SPATA31D1-001 (peptide)
peptide: RALLPSPLF
notes: also called RALLPSPLF
B31: CRB2-002 (peptide)
peptide: AAFPGAFSF
notes: also called AAFPGAFSF
B32: NOS2-002 (peptide)
peptide: FRSWAVQTF
notes: also called FRSWAVQTF
B33: ALP-011 (peptide)
peptide: RALTETIMF
notes: also called RALTETIMF
B34: ENP-002 (peptide)
peptide: KTYLPTFETTI
notes: also called KTYLPTFETTI
B35: BTBD16-005 (peptide)
peptide: VLASAHILQF
notes: also called VLASAHILQF
B36: ABCC11-005 (peptide)
peptide: IWDALERTF
notes: also called IWDALERTF
B37: CHRNA9-002 (peptide)
peptide: KYMSRVLFVY
notes: also called KYMSRVLFVY
B38: NLRP4-004 (peptide)
peptide: KMLPEASLLI
notes: also called KMLPEASLLI
B39: SLC45A3-005 (peptide)
peptide: RQAYSVYAF
notes: also called RQAYSVYAF
B40: TTLL6-001 (peptide)
peptide: KMFPKDFRF
notes: also called KMFPKDFRF
B41: C18orf54-001 (peptide)
peptide: RSWENIPVTF
notes: also called RSWENIPVTF
B42: GPC2-002 (peptide)
peptide: AQHSLTQLF
notes: also called AQHSLTQLF
B43: ADAM2-001 (peptide)
peptide: FFLFIPFF
notes: also called FFLFIPFF
B44: ABCC4-002 (peptide)
peptide: YAYATVLTF
notes: also called YAYATVLTF
B45: MAGEC1-003 (peptide)
peptide: FSSTLVSLF
notes: also called FSSTLVSLF
B46: PGR-004 (peptide)
peptide: MLYFAPDLIL
notes: also called MLYFAPDLIL
B47: ALX1-001 (peptide)
peptide: QFSHVPLNNF
notes: also called QFSHVPLNNF
B48: MMP11-024 (peptide)
peptide: WFFQGAQYW
notes: also called WFFQGAQYW
B49: MMP12-019 (peptide)
peptide: THSGGTNLF
notes: also called THSGGTNLF
B50: CYP1A1-003 (peptide)
peptide: YLPNPSLNAF
notes: also called YLPNPSLNAF
B51: GABRP-008 (peptide)
peptide: YTRLVLQF
notes: also called YTRLVLQF
B52: HAS3-004 (peptide)
peptide: TYESVVTGFF
notes: also called TYESVVTGFF
B53: GLB1L3-001 (peptide)
peptide: TIYSLEMKMSF
notes: also called TIYSLEMKMSF
B54: BTBD16-001 (peptide)
peptide: LKSPRLFTF
notes: also called LKSPRLFTF
B55: MMP16-002 (peptide)
peptide: WQNVTPLTF
notes: also called WQNVTPLTF
B56: MAGEA10-003 (peptide)
peptide: TDLVQFLLF
notes: also called TDLVQFLLF
B57: SLC45A3-003 (peptide)
peptide: ASAALTGFTF
notes: also called ASAALTGFTF
B58: HMCN1-005 (peptide)
peptide: AYAIPSASLSW
notes: also called AYAIPSASLSW
B59: MCOLN2-002 (peptide)
peptide: EFINGWYVL
notes: also called EFINGWYVL
B60: ACTL8-003 (peptide)
peptide: GYGLTRVQPF
notes: also called GYGLTRVQPF
B61: GEN-003 (peptide)
peptide: TQMDVKLVF
notes: also called TQMDVKLVF
B62: MPL-001 (peptide)
peptide: VHSYLGSPF
notes: also called VHSYLGSPF
B63: PCSK1-001 (peptide)
peptide: MGKGSISFLF
notes: also called MGKGSISFLF
B64: PAX3-001 (peptide)
peptide: YGQSKPWTF
notes: also called YGQSKPWTF
B65: LILRA4-003 (peptide)
peptide: ALFPMGPLTF
notes: also called ALFPMGPLTF
B66: OTOG-001 (peptide)
peptide: YTCSRAVSLF
notes: also called YTCSRAVSLF

Target: T1, HLA-A*24
T1 construct: Monomers captured on streptavidin plates; also called peptide-receptive MHC molecules; MHC complexes
Experiment: UV peptide-exchange ELISA (anti-b2m); yield grade ++ = >20%
From the text: Candidate peptides for T cell based therapies according to the present invention were further tested for their MHC binding capacity (affinity). The individual peptide-MHC complexes were produced by UV-ligand exchange, where a UV-sensitive peptide is cleaved upon UV-irradiation, and exchanged with the peptide of interest as analyzed. Only peptide candidates that can effectively bind and stabilize the peptide-receptive MHC molecules prevent dissociation of the MHC complexes. To determine the yield of the exchange reaction, an ELISA was performed based on the detection of the light chain (p2m) of stabilized MHC complexes. The assay was performed as generally described in Rodenko et al. (Rodenko et al., 2006)
96 well MAXISorp plates (NUNC) were coated over night with 2 ug/ml streptavidin in PBS at room temperature, washed 4× and blocked for 1 h at 37° C. in 2% BSA containing blocking buffer. Refolded HLA-A*02:01/MLA-001 monomers served as standards, covering the range of 15-500 ng/ml. Peptide-MHC monomers of the UV-exchange reaction were diluted 100-fold in blocking buffer. Samples were incubated for 1 h at 37° C., washed four times, incubated with 2 ug/ml HRP conjugated anti-β2m for 1h at 37° C., washed again and detected with TMB solution that is stopped with […]. Absorption was measured at 450 nm. Candidate peptides that show a high exchange yield (preferably higher than 50%, most preferred higher than 75%) are generally preferred for a generation and production of antibodies or fragments thereof, and/or T cell receptors or fragments thereof, as they show sufficient avidity to the MHC molecules and prevent dissociation of the MHC complexes.

Peptide exchange yield, 20 to 50%:
B1
B2
B3
B4
B5
B6
B7
B8
B9
B10
B11
B12
B13
B14
B15
B16
B17
B18
B19
B20
B21
B22
B23
B24
B25
B26
B27
B28
B29
B30
B31
B32
B33
B34
B35
B36
B37
B38
B39
B40
B41
B42
B43
B44
B45
B46
B47
B48
B49
B50
B51
B52
B53
B54
B55
B56
B57
B58
B59
B60
B61
B62
B63
B64
B65
B66

Reference: US20190352359A1 (IMMATICS BIOTECHNOLOGIES, published 2019)
